This series can be described thus: label from the status in PepcDB records.
Consider “RLEITPEAFLSDPTPAGVAARAAYELDPDIHVLPLADGTGEPLYLLHPSGGDVLCYMGLARELQGRPVYAVADPGLEDTPMPVDLDVVALTYGRVIMAHRAGLADTGKHGVREATAGYLIGGWSMGGTVAQRVAVQWRDQGIAVGALVLIDSNSPDRIRALTGMNDREVDAEFARRYLRSLQAFGAKAVDASAVTESDPASGVARALAGQGLALKDVERRISVFTRHLAGLAQLRVRPLVDVPTLLVIAEHQSPANSGVGMGVDDARDTEHLGWDDNLPTSTTEIMVPGHHYSVLSAPGLEIISEQIRELLA”, for which the protein production entry is listed as “failed”.

Take “RLKVEDALSYLDQVKLQFGSQPQVYNDFLDIMKEFKSQSIDTPGVISRVSQLFKGHPDLIMGFNTFLPPGYKIEVQTNDMVNVTTPGQVHQIPTHGI”: the protein production result is “failed”.

Consider “RMSHHYATIEVSQQLRQLLGDQLVILLRETPDGQALERSQNDFRRVLEQGRANTVDSAEQAALDGVRDAYLQLQAHTPALLEAPMADNDGFSEAFNGLRLRLQDLQQLALAGISEAE”, for which the protein production result was “not failed”. Under “RNGLDLTTYEGQVEGVEIASDPNLKIVGMMTHFPNEGLDEIRRKVDRFKVETKWLMDSAGLKRKDITLHVANSYITLNLPEAHLDMVRPGGMLYGDYPATLPYERIVSFKTRIASLHFFPAGSTIGYGSTKVLERDSILANLPIGYSDGFARSLSNKADVLINGQRARVMGKASMNTTMVDVTDIIGVQANDEVVVFGRQGFEEITAEETEEKSGRILPEHYTIWGATNPRVYR” stands “failed”; under “RNKPKGHLRIAIGGSTACDVLIPLLADFMTSWPDIRINLQVADKPADLISGNIDSAIRGGPMEDSTLIARKIGEATLVTCATPGYLQRYGTPASPDELHHGHRLISYLSPASGRAFPFRFTRH”, “failed”; under “RNLEMIDMQIAGTEQLTAFVTFAAANIGAPEQWLTQYYGNLIERKELFGYWHKGKLLAAGECRLFDQYQTEYADLGMIVAQSNRGQGIAKKVLTFLTKHAATQGLTSICSTESNNVAAQKAIAHAGFTSAHRIVQFEFKHA”, “failed”. As for “RPQNTNSWQKDSIEGIDIMLAMDVSGSMQAMDFKPNRLEAAKDVAISFINNRPNDNIGMVTFAGESFTQCPLTTDHTVLLNMVQDLQMGVLDDGTAIGMGLATAVNRLKDSKAKSRVVILLTDGSNNMGDITPRMAADIARTFGIRVYTVGVGTRGEAPFPIQTEFGVRIQNVPVDIDEPTLDGIAEVSGGKYFRAVDNETLNEIYKEIDKLEKTRLMT”, the protein production entry was “failed”. Consider “RQLVSGRLEVAADGPHLVMPMLARLRASYPGITVNLRLGNAQETLAALLSEHVDVAVLTEVEARPGLFLEELVNSRICALLPRQHPWCERNEGVPLEELDQQIMVLREPGSITRRTFDRACAEQGVQPRVLLELDSREAVT”, for which the protein production result is on record as “failed”.

Consider “RRCQVHLLDDRKLELLVQPKLLAKELLDLVASHFNLKEKEYFGIAFTDETGHLNWLQLDRRVLEHDFPKKSGPVVLYFCVR”, for which the protein production result is “failed”. Consider “RRGWVREVTAEVWTGPLAPVADLAGDTGVVLSREADETWLARYQRKGVSEVALRVLESGPSVWFATVPGAEGADGAGGGGGVAAIGRCVVDGRWASFAAVEVDPAQRRRGLATAVMAALARRALDEGASAAWLQVETDNAGARALYAGMGFAAHHSYHHYREPAAAGTDR”, for which the protein production result is on record as “failed”.

Consider “RRRNQKRANAERERLRQIIDTIPQQVFVKDADGTYTLANKAAAAAHGVAVERLEGATHDEFALSDEQRDFKSDDAAVIENGESVHIEEDGLVEADGSSHTVQTDIVPIEIASGERRALVVATDIT”, for which the protein production result is “failed”. Under “RSIRLPETIDLGALYLSMKDTEKGIKELNLEKDKKIFNHCFTGNCVIDWLVSNQSVRNRQEGLMIASSLLNEGYLQPAGDMSKSAVDGTAENPFLDNPDAFYYFPDSGFFCEEN” stands “not failed”; under “RSSEWLEKWQFVNGRFREHLQTISSEDVSFEGNLYRILQHLVPENSSLFVGNSMPIRDVDTFFEKQDRPFRIYSNRGANGIDGVVSSAMGVCEGTKAPVTLVIGDLSFYHDLNGLLAAKKLGIPLTVILVNNDGGGIFSFLPQASEKTHFEDLFGTPTGLDFKHAAALYGGTYSCPASWDEFKTAYAPQADKPGLHLIEIKTDRQSRVQLHRDMLNEAVREVKKQWEL”, “failed”; under “RSTRQQAGREAEAFALQFLQQQGLRLIEQNWLCKRGELDLVMLDGDTVVFVEVRYRRHCGWGGAVESVDFRKQGKLVTAAQLFLQQVSCWADYPCRFDVIAIEGSPGSFD”, “failed”. Under “RVGINQLVQHPALDAATTGFKEAFEEAGVDVTFDEQNANGEQGTALTISQQFASDNLDLVLAVATPAAQATAQNITDIPVLFTAVTDAVSAELVDSNEAPGGNVTGTSDIAPIEQQLELLQQLVPDAKSIGIVYASGEVNSQVQVDEVTKAAEPLGLSVNTQTVTTVNEIQQAVEALGDVDVIYVPTDNMVVSGISSLVQVAEQKQIPVIGAESGTVEGGALATLGIDYTELGRQTGEMALRILQDGEDPATMPVETATEFTYVINEDAAERQGVEIPQEILDKAERV” stands “not failed”. Under “SAAATGPSFWLGNETLKVPLALFALNRQRLCERLRKNPAVQAGSIVVLQGGEETQRYCTDTGVLFRQESFFHWAFGVTEPGCYGVIDVDTGKSTLFVPRLPASHATWMGKIHSKEHFKEKYAVDDVQYVDEIASVLTSQKPSVLLTLRGVNTDSGSVCREASFDGISKFEVNNTILHPEIVECRVFKTDMELEVLRYTNKISSEAHREVMKAVKVGMKEYELESLFEHYCYSRGGMRHSSYTCICGSGENSAVLHYGHAGAPNDRTIQNGDMCLFDMGGEYYCFASDITCSFPANGKFTADQKAVYEAVLRSSRAVMGAMKPGVWWPDMHRLADRIHLEELAHMGILSGSVDAMVQAHLGAVFMPHGLGHFLGIDVHDVGGYPEGVERIDEPGLRSLRTARHLQPGMVLTVEPGIYFIDHLLDEALADPARASFLNREVLQRFRGFGGVRIEEDVVVTDSGIELLTCVPRTVEEIEACMAGCDKAFTPFSGPK” stands “failed”; under “SAAHQMDSITYSNNVTQQYIQPQSLQDISAVEDEIQNKIEAARQESKQLHAQINKAKHKIQDASLFQMANKVTSLTKNKINLKPNIVLKGHNNKISDFRWSRDSKRILSASQDGFMLIWDSASGLKQNAIPLDSQWVLSCAISPSSTLVASAGLNNNCTIYRVSKENRVAQNVASIFKGHTCYISDIEFTDNAHILTASGDMTCALWDIPKAKRVREYSDHLGDVLALAIPEEPNSENSSNTFASCGSDGYTYIWDSRSPSAVQSFYVNDSDINALRFFKDGMSIVAGSDNGAINMYDLRSDCSIATFSLFRGYEERTPTPTYMAANMEYNTAQSPQTLKSTSSSYLDNQGVVSLDFSASGRLMYSCYTDIGCVVWDVLKGEIVGKLEGHGGRVTGVRSSPDGLAVCTGSWDSTMKIWSPGYQ”, “failed”; under “SAASQAGSNYPRCWNCGGPWGPGREDRFFCPQCRALQAPDPTRDYFSLMDCNRSFRVDTAKLQHRYQQLQRLVHPDFFSQRSQTEKDFSEKHSTLVNDAYKTLLAPLSRGLYLLKLHGIEIPERTDYEMDRQFLIEIMEINEKLAEAESEAAMKEIESIVKAKQKEFTDNVSSAFEQDDFEEAKEILTKMRYFSNIEEKIKLKKIPL”, “not failed”. With “SAESSKLSATTVEAAPAMIKAKDVISPSEKEESDQTEITKVSVLKNLDEKEMIKEFADRLQRLEAKVDLLVTKADLLAIKADIQELLISAKGEKVPAMKTSAKASSESDDSYMDTSSEDESSSAEEPVNKPAASAAKPATKDSLFSAGFKPAAKDSLFSAGFKPDSLFSAGFEPAAKDSLFSAGFKPGSLFSAGFEPAAKDSLFSAGFKPDSLFSVGVKPAAKDSLFSVGVNGRSFSVTGFDASLPVDDIKSALSKYFSSFGEITRVFVPPSHGTGGSLGYAYIDLKEGAEKALELGRHDVGGWDLVVGKAEPIRSGSTWPFPGRCGNQGRCTFC”, the protein production result is given as “failed”. Under “SAPFDVIGPQEPILAVVGEDAELPCRLSPNVSAKGMELRWFREKVSPAVFVSREGQEQEGEEMAEYRGRVSLVEDHIAEGSVAVRIQEVKASDDGEYRCFFRQDENYEEAIVHLKVAA” stands “failed”; under “SAQGLIEVERKFAPGPDTEERLQELGATLEHRVTFRDTYYDTSELSLMLSDHWLRQREGSGWELKCPGVTGVSGPHNEYVEVTSEAAIVAQLFELLGSGEQKPAGVAAVLGSLKLQEVASFITTRSSWKLALSGAHGQEPQLTIDLDSADFGYAVGEVEAMVHEKAEVPAALEKIITVSSMLGVPAQEEAPAKLMVYLQRFRPLDYQRLLEAASSGEATGDSAS”, “not failed”; under “SARFALTVVRHGETRFNKEKIIQGQGVDEPLSETGFKQAAAAGIFLNNVKFTHAFSSDLMRTKQTMHGILERSKFCKDMTVKYDSRLRERKYGVVEGKALSELRAMAKAAREECPVFTPPGGETLDQVKMRGIDFFEFLCQLILKEADQKEQFSQGSPSNCLETSLAEIFPLGKNHSSKVNSDSGIPGLAASVLVVSHGAYMRSLFDYFLTDLKCSLPATLSRSELMSVTPNTGMSLFIINFEEGREVKPTVQCICMNLQDHLNGLTETR”, “not failed”.

Take “SASFVTSKRDFRARAHSNPLNDAEFLVPEDPLRFDWSPFIPDVGSHPIDYVDLGCGYGGLLCELSIAFPNKYMLGMEIRDRVASYCVTKLEELRRLNSKGYRNIGFIRTNCMKFLPFYFPPSSVEKFFICFPDPHFKKKKHRQRLVSLRFLSEAAYCLRPGGMIYIVTDVEELFAWMTNLFAQHPLFLTMDKELVKQQDVLLPYLLNHTDEAQRMKRRGQDTPYWNVFQRKTVFC”: the protein production result is “failed”. Under “SATQIPSTISILATSDIHGNVLNYDYATGKAPTNTQGLAKVSSYVNSVRASKPNVMLIDDGDTIQGTPLSYYYDKIDTTSEYPLMKIMGAMKYDTWTLGNHEFNYGLPTLNRVISDARKENINVLSANTYNSDNTNFVNPYYIKTFNINGKTVNVGILGLTTKCIPDWEDPSHYAGLHFNDLVDEAKLWVPRMKAAGANVVIVAAHSGEEGAADTIPENQIKAIATNVSGIDAIVAGHAHVTVNDTSLKNPNGKTVPVVEPNKWGTFVSQIDITLDNSGNASTINTQNVKMTDSIPEDPNIVNIIQPYQNKTLDYIST” stands “failed”.

For the sequence “SCDSIREDLPRCELWLEFVFDYNMEYADAFNPQVKSVDVLVFDSDDKLLFTKSVKVAALVGGNRMSLTDELDFGSYKVLTVGSLSDRFRLSDNAGNKLVPGTTTLQQVIVSLKRETGGVNFEFQHLYFGEVVEVDHLPSNTNHKIYPVNLIRDTNRFNLALMGYEENKVDGTQYTFEIQAPENAVYSWENEPTGQGPITYVPYYTGPGEISDVVMSARLNTMRLLNRSGWDYKFIIRDANTEAEVWSYNLMTLLSIARPVSRYDGTELPFQEYLDRQSEWNLVFTVVEKNGGGFLQIGIVVGTWIHWLHGMEV”, the protein production result was “not failed”. Under “SDCDIEGKDGKQYESVLMVSIDQLLDSMKEIGSNCLNNEFNFFKRHICDANKEGMFLFRAARKLRQFLKMNSTGDFDLHLLKVSEGTTILLNCTGQVKGRKPAALGEAQPTKSLEENKSLKEQKKLNDLCFLKRLLQEIKTCWNKILMGTKEH” stands “not failed”; under “SDFSRNLYDIGEQLDSEDLASLKFLSLDYIPQRKQEPIKDALMLFQRLQEKRMLEESNLSFLKELLFRINRLDLLITYLNTRKEEMERELQTPGRAQISAYRVMLYQISEEVSRSELRSFKFLLQEEISKCKLDDDMNLLDIFIEMEKRVILGEGKLDILKRVCAQINKSLLKIINDYEEFSKGEELCGVMTISDSPREQDSESQTLDKVYQMKSKPRGYCLIINNHNFAKAREKVPKLHSIRDRNGTHLDAGSHSVAQAGVQWCDLGSLQPPPPWFG”, “not failed”.

Source of the values: a protein production outcome set (Wang et al. 2014).
